Laboratory results published in patent US20240025984A1 (FLUX THERAPEUTICS, published 2024).

T1: SYNGAP1-nanoluc-alfa-tag-fusion
T1 chain: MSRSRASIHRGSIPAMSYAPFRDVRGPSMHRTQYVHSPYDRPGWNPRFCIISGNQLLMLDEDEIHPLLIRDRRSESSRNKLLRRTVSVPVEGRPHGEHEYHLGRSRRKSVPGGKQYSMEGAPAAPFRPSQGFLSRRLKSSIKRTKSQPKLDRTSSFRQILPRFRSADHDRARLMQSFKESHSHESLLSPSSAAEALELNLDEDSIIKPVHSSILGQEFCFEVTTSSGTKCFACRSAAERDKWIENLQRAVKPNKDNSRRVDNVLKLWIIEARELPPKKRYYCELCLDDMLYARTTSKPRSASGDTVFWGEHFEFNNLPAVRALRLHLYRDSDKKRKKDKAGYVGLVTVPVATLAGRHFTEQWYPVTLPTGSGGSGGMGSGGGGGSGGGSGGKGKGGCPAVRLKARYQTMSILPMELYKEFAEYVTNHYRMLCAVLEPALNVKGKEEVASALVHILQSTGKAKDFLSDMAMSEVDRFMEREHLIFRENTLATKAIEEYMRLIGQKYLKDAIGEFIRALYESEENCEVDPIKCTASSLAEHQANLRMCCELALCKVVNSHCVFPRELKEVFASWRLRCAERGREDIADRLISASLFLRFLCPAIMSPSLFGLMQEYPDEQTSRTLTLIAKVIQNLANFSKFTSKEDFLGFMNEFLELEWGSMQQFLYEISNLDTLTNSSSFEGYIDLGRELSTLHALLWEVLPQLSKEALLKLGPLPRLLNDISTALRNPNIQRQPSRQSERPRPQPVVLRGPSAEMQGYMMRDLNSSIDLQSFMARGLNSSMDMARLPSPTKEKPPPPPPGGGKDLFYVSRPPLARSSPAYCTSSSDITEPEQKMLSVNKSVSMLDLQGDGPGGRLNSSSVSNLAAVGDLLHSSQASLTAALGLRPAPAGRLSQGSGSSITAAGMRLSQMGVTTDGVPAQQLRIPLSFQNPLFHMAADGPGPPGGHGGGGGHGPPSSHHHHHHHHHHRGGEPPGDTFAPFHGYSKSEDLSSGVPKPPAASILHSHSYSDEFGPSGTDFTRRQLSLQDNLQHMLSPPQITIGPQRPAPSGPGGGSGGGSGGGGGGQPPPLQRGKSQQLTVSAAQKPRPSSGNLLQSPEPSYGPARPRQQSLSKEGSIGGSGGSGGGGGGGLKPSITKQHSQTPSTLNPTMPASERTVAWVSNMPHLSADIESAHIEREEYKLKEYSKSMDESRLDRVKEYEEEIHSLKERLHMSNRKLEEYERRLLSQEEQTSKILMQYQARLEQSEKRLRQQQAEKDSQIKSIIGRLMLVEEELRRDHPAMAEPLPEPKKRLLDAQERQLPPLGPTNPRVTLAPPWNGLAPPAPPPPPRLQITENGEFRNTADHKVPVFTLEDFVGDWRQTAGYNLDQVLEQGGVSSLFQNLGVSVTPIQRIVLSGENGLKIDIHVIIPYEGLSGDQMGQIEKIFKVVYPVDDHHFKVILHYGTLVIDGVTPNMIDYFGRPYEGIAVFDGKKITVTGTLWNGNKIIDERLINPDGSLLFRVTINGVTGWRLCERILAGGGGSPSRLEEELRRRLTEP

T2: His-SynGAP-EC[1186-1277] (Homo sapiens (Human), UniProt Q96PV0 956-1305)
T2 construct: Expressed in E. coli, purified on nickel resin, 15.75 kDa; also called SYNGAP1 fragment with N-terminal 6His tag
T2 sequence: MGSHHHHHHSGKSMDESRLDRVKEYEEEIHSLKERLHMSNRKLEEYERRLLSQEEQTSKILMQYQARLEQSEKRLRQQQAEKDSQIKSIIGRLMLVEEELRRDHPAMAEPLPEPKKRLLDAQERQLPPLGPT

B1: FireflyLuciferase-P2A-anti-syngap1_FLX00155-Cezanne (other)
chain: MEDAKNIKKGPAPFYPLEDGTAGEQLHKAMKRYALVPGTIAFTDAHIEVDITYAEYFEMSVRLAEAMKRYGLNTNHRIVVCSENSLQFFMPVLGALFIGVAVAPANDIYNERELLNSMGISQPTVVFVSKKGLQKILNVQKKLPIIQKIIIMDSKTDYQGFQSMYTFVTSHLPPGFNEYDFVPESFDRDKTIALIMNSSGSTGLPKGVALPHRTACVRFSHARDPIFGNQIIPDTAILSVVPFHHGFGMFTTLGYLICGFRVVLMYRFEEELFLRSLQDYKIQSALLVPTLFSFFAKSTLIDKYDLSNLHEIASGGAPLSKEVGEAVAKRFHLPGIRQGYGLTETTSAILITPEGDDKPGAVGKVVPFFEAKVVDLDTGKTLGVNQRGELCVRGPMIMSGYVNNPEATNALIDKDGWLHSGDIAYWDEDEHFFIVDRLKSLIKYKGYQVAPAELESILLQHPNIFDAGVAGLPDDDAGELPAAVVVLEHGKTMTEKEIVDYVASQVTTAKKLRGGVVFVDEVPKGLTGKLDARKIREILIKAKKGGKIAVTRLKGSGATNFSLLKQAGDVEENPGPRSGTGSSGQVQLVESGGGLVQPGGSLRLSCAASGFAFGSYDMSWVRQAPGQGPEWVSAITPGGGGTFYAYYSDSVKGRFAISRDNAKNTLTLQMNSLKPDDTAMYYCAKNFYGNGGRGHGTQVTVSSGGGGSGGGGSGGGGSGGGGSQVQLVESGGGLVQPGGSLRLSCAASGFAFGSYDMSWVRQAPGQGPEWVSAITPGGGGTFYAYYSDSVKGRFAISRDNAKNTLTLQMNSLKPDDTAMYYCAKNFYGNGGRGHGTQVTVSSGAPGSGPPSFSEGSGGSRTPEKGFSDREPTRPPRPILQRQDDIVQEKRLSRGISHASSSIVSLARSHVSSNGGGGGSNEHPLEMPICAFQLPDLTVYNEDFRSFIERDLIEQSMLVALEQAGRLNWWVSVDPTSQRLLPLATTGDGNCLLHAASLGMWGFHDRDLMLRKALYALMEKGVEKEALKRRWRWQQTQQNKESGLVYTEDEWQKEWNELIKLASSEPRMHLGTNGANCGGVESSEEPVYESLEEFHVFVLAHVLRRPIVVVADTMLRDSGGEAFAPIPFGGIYLPLEVPASQCHRSPLVLAYDQAHFSALVSMEQKENTKEQAVIPLTDSEYKLLPLHFAVDPGKGWEWGKDDSDNVRLASVILSLEVKLHLLHSYMNVKWIPLSSDAQAPLAQ
B2: FireflyLuciferase-P2A-anti-syngap1_FLX00154-Cezanne (other)
chain: MEDAKNIKKGPAPFYPLEDGTAGEQLHKAMKRYALVPGTIAFTDAHIEVDITYAEYFEMSVRLAEAMKRYGLNTNHRIVVCSENSLQFFMPVLGALFIGVAVAPANDIYNERELLNSMGISQPTVVFVSKKGLQKILNVQKKLPIIQKIIIMDSKTDYQGFQSMYTFVTSHLPPGFNEYDFVPESFDRDKTIALIMNSSGSTGLPKGVALPHRTACVRFSHARDPIFGNQIIPDTAILSVVPFHHGFGMFTTLGYLICGFRVVLMYRFEEELFLRSLQDYKIQSALLVPTLFSFFAKSTLIDKYDLSNLHEIASGGAPLSKEVGEAVAKRFHLPGIRQGYGLTETTSAILITPEGDDKPGAVGKVVPFFEAKVVDLDTGKTLGVNQRGELCVRGPMIMSGYVNNPEATNALIDKDGWLHSGDIAYWDEDEHFFIVDRLKSLIKYKGYQVAPAELESILLQHPNIFDAGVAGLPDDDAGELPAAVVVLEHGKTMTEKEIVDYVASQVTTAKKLRGGVVFVDEVPKGLTGKLDARKIREILIKAKKGGKIAVTRLKGSGATNFSLLKQAGDVEENPGPRSGTGSSGQVQLVESGGGLVQPGGSLRLSCAASGFIFSSYQMAWVRQAPGKGLEWVADINTGGWNTYYADSVKGRFTISRDNAKNTLYLEMNSLKPEDTAVYYCAADRWMVAKIVGGDLDFDSWGQGTQVTVSSGGGGSGGGGSGGGGSGGGGSQVQLVESGGGLVQPGGSLRLSCAASGFIFSSYQMAWVRQAPGKGLEWVADINTGGWNTYYADSVKGRFTISRDNAKNTLYLEMNSLKPEDTAVYYCAADRWMVAKIVGGDLDFDSWGQGTQVTVSSGAPGSGPPSFSEGSGGSRTPEKGFSDREPTRPPRPILQRQDDIVQEKRLSRGISHASSSIVSLARSHVSSNGGGGGSNEHPLEMPICAFQLPDLTVYNEDFRSFIERDLIEQSMLVALEQAGRLNWWVSVDPTSQRLLPLATTGDGNCLLHAASLGMWGFHDRDLMLRKALYALMEKGVEKEALKRRWRWQQTQQNKESGLVYTEDEWQKEWNELIKLASSEPRMHLGTNGANCGGVESSEEPVYESLEEFHVFVLAHVLRRPIVVVADTMLRDSGGEAFAPIPFGGIYLPLEVPASQCHRSPLVLAYDQAHFSALVSMEQKENTKEQAVIPLTDSEYKLLPLHFAVDPGKGWEWGKDDSDNVRLASVILSLEVKLHLLHSYMNVKWIPLSSDAQAPLAQ
B3: FLX00152 (VHH)
VHH: QVQLVESGGGLVQPGGSLRLSCAASGFSFSNFPMMWVRQAPGKGREWVADINQDGRNTYYADSVKGRFTISRDNAKTTVYLQMNNLNPEDTAVYYCQAIRTTTHFDSWGQGTQVTVSS
notes: Camelid VHH from a phage library; also called anti-SynGAP VHH FLX00152; VHH
B4: FLX00153 (VHH)
VHH: QLQLVESGGGLVQPGESLRLSCAASGFTFSNYRMYWVRMAPGKGLEWVSDIDRSGTYTYYADSVKGRFAISRDNAKNTVYLQMNSLKPEDTAVYYCAADRRLIVDLTPEVYDHWGQGTQVTVSS
notes: Camelid VHH from a phage library; also called anti-SynGAP VHH FLX00153; VHH
B5: FireflyLuciferase-P2A-anti-syngap1_FLX00156-Cezanne (other)
chain: MEDAKNIKKGPAPFYPLEDGTAGEQLHKAMKRYALVPGTIAFTDAHIEVDITYAEYFEMSVRLAEAMKRYGLNTNHRIVVCSENSLQFFMPVLGALFIGVAVAPANDIYNERELLNSMGISQPTVVFVSKKGLQKILNVQKKLPIIQKIIIMDSKTDYQGFQSMYTFVTSHLPPGFNEYDFVPESFDRDKTIALIMNSSGSTGLPKGVALPHRTACVRFSHARDPIFGNQIIPDTAILSVVPFHHGFGMFTTLGYLICGFRVVLMYRFEEELFLRSLQDYKIQSALLVPTLFSFFAKSTLIDKYDLSNLHEIASGGAPLSKEVGEAVAKRFHLPGIRQGYGLTETTSAILITPEGDDKPGAVGKVVPFFEAKVVDLDTGKTLGVNQRGELCVRGPMIMSGYVNNPEATNALIDKDGWLHSGDIAYWDEDEHFFIVDRLKSLIKYKGYQVAPAELESILLQHPNIFDAGVAGLPDDDAGELPAAVVVLEHGKTMTEKEIVDYVASQVTTAKKLRGGVVFVDEVPKGLTGKLDARKIREILIKAKKGGKIAVTRLKGSGATNFSLLKQAGDVEENPGPRSGTGSSGQVQLVESGGGLVQPGGSLRLACAASGFTFGTHAMHWVRWAPGKGFEWVSTISSGGGGTRYADSVKGRFTISRDNAKNTVYLQMDNLKPEDTAVYYCNSPSNIANDNWGQGTQVTVSSGGGGSGGGGSGGGGSGGGGSQVQLVESGGGLVQPGGSLRLACAASGFTFGTHAMHWVRWAPGKGFEWVSTISSGGGGTRYADSVKGRFTISRDNAKNTVYLQMDNLKPEDTAVYYCNSPSNIANDNWGQGTQVTVSSGAPGSGPPSFSEGSGGSRTPEKGFSDREPTRPPRPILQRQDDIVQEKRLSRGISHASSSIVSLARSHVSSNGGGGGSNEHPLEMPICAFQLPDLTVYNEDFRSFIERDLIEQSMLVALEQAGRLNWWVSVDPTSQRLLPLATTGDGNCLLHAASLGMWGFHDRDLMLRKALYALMEKGVEKEALKRRWRWQQTQQNKESGLVYTEDEWQKEWNELIKLASSEPRMHLGTNGANCGGVESSEEPVYESLEEFHVFVLAHVLRRPIVVVADTMLRDSGGEAFAPIPFGGIYLPLEVPASQCHRSPLVLAYDQAHFSALVSMEQKENTKEQAVIPLTDSEYKLLPLHFAVDPGKGWEWGKDDSDNVRLASVILSLEVKLHLLHSYMNVKWIPLSSDAQAPLAQ

Legend:
[1] = molecular target: T1, SYNGAP1-nanoluc-alfa-tag-fusion; test: cell-based or functional assay
His-SynGAP-EC[1186-1277] = molecular target: T2, His-SynGAP-EC[1186-1277]; test: phage display panning, then polyclonal and monoclonal phage ELISA on plate-coated antigen (4 ug/ml)
Procedure: The concentration of the eluted phages was determined. First, the eluted phages were added to E. Coli TG1. TG1 was poured onto a plate and cultured upside down. The PFU was calculated based on the number of plaques (i.e. dead TG1) on the plate. The eluted phages were added to TG1 followed infection by helper phage and cultured. Phages were precipitated with PEG/NaCl and subsequently resuspended. The phages were screened using a polyclonal ELISA and a monoclonal ELISA. […] ([…]) or control buffer. The coated plate was washed, blocked, washed, and incubated with the amplified eluted phages. Subsequently the plate was washed and incubated with anti-phage-HRP antibody, washed, and incubated with TMB followed by HCL. The result readings were taken at 450 nm. The monoclonal phase ELISA was carried out according to the following. Single TG1 clones randomly selected from plates (described above) were cultured with helper phage. A total of 192 clones from round 3+96 clones from round 4+96 clones from round 5 were selected. The clones were centrifuged and the supernatant (i.e. the phages) were collected. […] The plate was washed, blocked, washed, incubated with the selected phages, washed, incubated with anti-phage-HRP antibody, washed, and incubated with TMB followed by HCL. The results were read of 450 nm.

Binder	increase in SYNGAP1 expression over the control [1] [fold]	binding result (His-SynGAP-EC[1186-1277])
B1	≥ 2	–
B2	≥ 2	–
B3	–	binds
B4	–	binds
B5	≥ 2	–
